This test addresses CRF2-4/zcytor11 heterodimeric receptor on BaF3/CRF2-4/zcytor11 cells (human) (UniProt Q8N6P7). In words: cell-based or functional assay.

Chain of CRF2-4/zcytor11 heterodimeric receptor on BaF3/CRF2-4/zcytor11 cells (human) (Q8N6P7 16-574 limits assumed, chain 1 of 2): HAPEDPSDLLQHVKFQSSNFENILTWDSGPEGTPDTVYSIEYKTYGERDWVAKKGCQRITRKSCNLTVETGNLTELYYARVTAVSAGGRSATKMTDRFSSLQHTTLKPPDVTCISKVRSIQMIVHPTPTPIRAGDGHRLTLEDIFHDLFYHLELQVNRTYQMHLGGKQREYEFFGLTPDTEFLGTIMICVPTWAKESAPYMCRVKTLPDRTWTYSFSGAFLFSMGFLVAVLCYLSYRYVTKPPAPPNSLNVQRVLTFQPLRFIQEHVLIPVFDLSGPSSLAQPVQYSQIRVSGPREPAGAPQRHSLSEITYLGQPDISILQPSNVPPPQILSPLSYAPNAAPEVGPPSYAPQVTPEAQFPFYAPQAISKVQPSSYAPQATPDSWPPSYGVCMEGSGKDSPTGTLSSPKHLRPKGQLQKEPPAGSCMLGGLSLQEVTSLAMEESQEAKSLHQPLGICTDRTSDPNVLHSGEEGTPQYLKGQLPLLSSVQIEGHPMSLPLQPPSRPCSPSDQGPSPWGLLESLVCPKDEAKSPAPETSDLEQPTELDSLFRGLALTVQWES
Chain of CRF2-4/zcytor11 heterodimeric receptor on BaF3/CRF2-4/zcytor11 cells (human) (Q08334 20-325 limits assumed, chain 2 of 2, further chain): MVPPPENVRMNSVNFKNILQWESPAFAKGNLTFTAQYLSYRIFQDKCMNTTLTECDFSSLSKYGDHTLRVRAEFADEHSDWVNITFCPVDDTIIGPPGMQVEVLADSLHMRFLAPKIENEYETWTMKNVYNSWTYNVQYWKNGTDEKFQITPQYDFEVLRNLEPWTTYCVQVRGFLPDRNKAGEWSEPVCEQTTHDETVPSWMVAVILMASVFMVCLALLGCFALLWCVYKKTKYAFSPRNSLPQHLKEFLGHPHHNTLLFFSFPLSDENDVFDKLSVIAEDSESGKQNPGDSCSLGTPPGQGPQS

On to “IL-TIF-CEE (human IL-TIF with C-terminal Glu-Glu tag) (from UniProt Q9GZX6 34-179) (ligand)”, for which the Alamar Blue proliferation of BaF3/CRF2-4/zcytor11 cells, IL-TIF-CEE at 0.06 ng/ml (fold induction) came out at 2 and the Alamar Blue proliferation of BaF3/CRF2-4/zcytor11 cells, IL-TIF-CEE at 50 ng/ml (fold over background) amounted to 15.

(Values after patent US20020012669A1.)
